Among the targets are 92BR020 N386A (HIV-1); JR-CSF N332A (HIV-1) (UniProt P20871); 92BR020 N332A (HIV-1); JR-CSF N392A (HIV-1) (UniProt P20871); JR-CSF Q328A (HIV-1) (UniProt P20871); 92BR020 H33OA (HIV-1); JR-CSF N362A (HIV-1) (UniProt P20871); 92BR020 (HIV-1); 92BR020 D325A (HIV-1); JR-CSF N301A (HIV-1) (UniProt P20871); JR-CSF H33OA (HIV-1) (UniProt P20871); JR-CSF D325A (HIV-1) (UniProt P20871); JR-CSF N386A (HIV-1) (UniProt P20871); 92BR020 N156A (HIV-1); 92BR020 Q328A (HIV-1); 92BR020 I326A (HIV-1); 92BR020 R327A (HIV-1); JR-CSF N339A (HIV-1) (UniProt P20871); JR-CSF I326A (HIV-1) (UniProt P20871); JR-CSF G324A (HIV-1) (UniProt P20871); JR-CSF (HIV-1) (UniProt P20871); 92BR020 N392A (HIV-1); 92BR020 N301A (HIV-1); JR-CSF N295A (HIV-1) (UniProt P20871); JR-CSF R327A (HIV-1) (UniProt P20871); 92BR020 N136A (HIV-1); BG505 (T332N) (HIV-1).

Experiment in all cases: cell-based or functional assay
For test [1], the target named is 92BR020 N156A + N332A (HIV-1).
In test [2] the target is 92BR020 N301A + N332A (HIV-1).
For test [3], the target named is 92BR020 N136A + N332A (HIV-1).
In test [4] the target is 92BR020 N136A + N156A + N301A (HIV-1).
Test [5] has as its target BG505 (T332N) N156A (HIV-1).
Test [6] deals with BG505 (T332N) N295A (HIV-1).
For test [7], the target named is BG505 (T332N) N386A (HIV-1).
Test [8] has as its target BG505 (T332N) N301A (HIV-1).
The target of test [9] is BG505 (T332N) N392A (HIV-1).
Test [10] deals with BG505 (T332N) N137A (HIV-1).
For test [11], the target named is 118-virus panel (Env of HIV-1 pseudoviruses).

This passage reports IC50 in TZM-bl assay and geometric mean IC50 in TZM-bl assay results from US11325966.

A value given as a limit tells only on which side of the number the result lay.

For 354BG18 (antibody), the IC50 in TZM-bl assay in the test with 92BR020 N386A (HIV-1) was 0.003 µg/mL; in test [1], above 50 µg/mL; with JR-CSF N332A (HIV-1), above 50 µg/mL; in the test with 92BR020 N332A (HIV-1), above 50 µg/mL; in test [2] it was above 50 µg/mL; in [3], above 50 µg/mL. In the test with JR-CSF N392A (HIV-1), this molecule returned an IC50 in TZM-bl assay of 0.002 µg/mL.

In the case of control mAb 12A12 (antibody), the IC50 in TZM-bl assay is 0.055 µg/mL in the test with 92BR020 N386A (HIV-1); 0.038 µg/mL with JR-CSF Q328A (HIV-1); 0.073 µg/mL with 92BR020 H33OA (HIV-1); 0.023 µg/mL in test [1]; 0.24 µg/mL with JR-CSF N332A (HIV-1); 0.267 µg/mL in the test with JR-CSF N362A (HIV-1). Further, the IC50 in TZM-bl assay with 92BR020 (HIV-1) amounted to 0.05 µg/mL; with 92BR020 N332A (HIV-1), 0.039 µg/mL; with 92BR020 D325A (HIV-1) it was 0.05 µg/mL; in test [2], 0.007 µg/mL; with JR-CSF N301A (HIV-1) it was 0.01 µg/mL; with JR-CSF H33OA (HIV-1) it was 0.288 µg/mL. Also, the IC50 in TZM-bl assay in the test with JR-CSF D325A (HIV-1) amounted to 0.203 µg/mL; in the test with JR-CSF N386A (HIV-1), 0.332 µg/mL; in [4], 0.013 µg/mL; with 92BR020 N156A (HIV-1) it was 0.035 µg/mL; in the test with 92BR020 Q328A (HIV-1), 0.028 µg/mL; with 92BR020 I326A (HIV-1), 0.011 µg/mL. For the same molecule, the IC50 in TZM-bl assay in test [5] turned out to be 0.024 µg/mL; in the test with 92BR020 R327A (HIV-1), 0.022 µg/mL; with JR-CSF N339A (HIV-1), 0.028 µg/mL; in test [6] it was 0.044 µg/mL; in the test with JR-CSF I326A (HIV-1), 0.278 µg/mL; in test [7] it was 0.03 µg/mL. Besides, the IC50 in TZM-bl assay in test [3] came to 0.025 µg/mL; in [8] it was 0.027 µg/mL; with JR-CSF G324A (HIV-1), 0.236 µg/mL; with JR-CSF (HIV-1) it was 0.233 µg/mL; in the test with 92BR020 N392A (HIV-1), 0.105 µg/mL; in [9], 0.012 µg/mL. Besides, the IC50 in TZM-bl assay with 92BR020 N301A (HIV-1) worked out at 0.011 µg/mL; with JR-CSF N295A (HIV-1), 0.203 µg/mL; with JR-CSF N392A (HIV-1), 0.23 µg/mL; with JR-CSF R327A (HIV-1), 0.131 µg/mL; with 92BR020 N136A (HIV-1), 0.027 µg/mL; in test [10], 0.027 µg/mL. Further, the IC50 in TZM-bl assay with BG505 (T332N) (HIV-1) was 0.03 µg/mL.

B1: BG1 IgG (antibody, V domains shown)
VH: AEQLVESGGGLVPPGRSLRLSCSASGFYFPDYAMAWVRQAPGQGLQWVGFMRGWAYGGSAQFAAFAVGKFAISRDDGRNVVYLDVKNPTFEDTGVYFCAREQRNKDYRYGQEGFGYSYGMDVWGRGTTVVVST
VL: DIHMTQSPVSLSASVGDRVTITCRASHFIANYVNWYQQKPGKAPTLLIFESSTLQRGVPSRFSAYGDGTEFTLSINTLQPEDFASYICQQSHSPPVTFGAGTRVDQK
In test [11], B1 came in with a geometric mean IC50 in TZM-bl assay of 0.67 µg/mL.
